From the supplement of paper PMC10567573

B1: PPEF2 (parent)
chain: AFKAAALIQRWYRRYVARLEMRRR
B2: C8orf76 (parent)
chain: LYLQLAICSSLQNLEKTIFCLQKL
B3: ZNF449 (parent)
chain: YRHQRLHTGERPYECTVCKKRFTR

Variants of: B1
Assay: protein stability index of a GFP-peptide fusion (GPS, HEK-293T) (PSI 1-6); higher = more stable
Settings: c terminus: a fixed tail appended
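Further: lentivirally expressed fusions sorted by FACS into six bins by GFP to DsRed ratio, PSI derived from sequencing read proportions per bin multiplied by bin number.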

Protein stability index: each site, then its substitutions
F2: G 2.87, Y 3.46, A 3.87, W 3.79, P 3.78, D 3.53, E 4.95, K 3.04, L 3.99, M 3.8, R 3.76, N 3.3
K3: C 1.86, D 2.27
A1: P 3.44, R 3.66, F 2.62, W 1.77, E 4.09, T 3.4, C 3.54, G 2.17, H 2.59, Q 3.52, N 3.6, D 2.36, M 3.01, I 3.77, V 3.96, L 4.05

Variants of: B2
Assay: as above
Settings: c terminus: a fixed tail appended

Protein stability index, by site and new letter:
A6: N 2.71, P 2.9, Q 2.63, G 1.73, L 2.52, M 3.66, Y 2.03, H 4.38, W 1.73, V 1.62, C 2.72, I 2.16, R 3.17, T 3.04
C8: F 1.94, V 3.6, M 4.39, S 3.03, Y 2.62, W 2.12, L 2.92, R 3.1, E 3.54, G 3.48, N 3.14, P 2.57, H 2.52, I 1.69, T 2.71
L3: C 4.32, N 1.34, V 3.09, P 1.81, S 3.2, D 2.73, E 2.56, R 4.15, T 4.08, A 3.31
I7: S 1.26, M 2.24, Y 3.21, H 2.71, T 2.36, G 3.86, N 2.23
K16: S 2.67, T 4.26, P 2.32, C 4.77, Y 2.26, N 2.47, I 2.44, Q 3.17
T17: M 3.56, W 4.22, N 2.46, D 2.31, C 2.55, P 1.98, G 4.96, L 4, Y 3.47, V 2.84, H 2.34, F 3.63, Q 3.45
F19: N 3.32, Y 4.28, V 2, K 3.04, T 1.71, G 2.83, C 2.27, I 2.8, L 3.21, M 3.62, E 1.81, W 2.24, A 2.89
S10: H 3.71, V 3.44, N 3.36, K 2.11, T 2.38, A 2.36, F 4.67, L 2.99, P 2.52
Q4: A 1.92, E 1.65, S 4.32, C 5.01, D 2.74, V 3.48, I 2.44, F 2.22, T 2.97, K 2.11, W 1.41, R 4.03, M 3.43
L21: F 3.62, D 2.09, A 2.77, Y 3.14, N 2.25, R 2.08, C 2.88, S 2.59, E 1.42, H 2.76, P 3.85, G 3.2
S9: W 1.02, G 3.03, A 3.6, V 3.45, I 2.34, D 2.72, K 1.75, M 4.15, L 2.28, N 4.23
Q22: W 1.93, N 2.31, T 3.32, M 3.12, V 2.58, D 2.46, P 2.69, F 3.5, S 1.58, K 3.39, I 1.46, C 2.56
L1: E 3.38, V 2.57, P 3.08, D 4.64, S 3.44, I 2.57, T 2.99, N 3.07
E15: P 3.75, D 1.75, F 4.35, R 2.63, C 2.82, W 3.01, V 3.25, I 2.49, G 1.69, Q 3.27, T 1.99, M 3.11, L 4.03
I18: Q 2.44, K 2.22, Y 2.94, L 2.46, N 5.27, R 2.41, M 1.11, F 2.57, P 4.2, E 1.79, H 2.6, W 3.03
L11: T 1.82, K 3.11, F 1.39, W 1.77, I 2.28, E 4.55, P 5.02, C 1.8, Q 2.35, M 3.61, D 2.17
N13: A 2.98, F 2.51, M 3.43, P 3.23, S 3.71, C 2.25, R 3.01, Y 2.21, D 3.49, I 1.93
Q12: K 3.08, M 3.9, N 2.07, F 2.75, G 2.58, H 3.42, W 3.78, E 2.29, P 2.52, A 2.38, T 4.52, V 2.3
L5: T 2.24, V 2.05, H 1.67, C 1.79, N 3.62, Y 2.57, A 1.65, P 2.23, W 2.82, R 1.92, K 1.36, F 3.72, G 3.09, E 1.79
K23: F 2.92, P 2.54, D 2.02, W 3.62, N 2.11, T 2.15, I 2.72, S 1.89, M 1.58, G 3.17, Q 4.24, L 2.27, R 3.49, Y 3.53
C20: M 1.94, Y 2.18, V 3.44, D 2.93, K 2.36, G 3.1, P 1.88, I 2.15, F 2.83, H 3.83, R 3.09, E 1.86, W 2.66, T 2.13, A 2.85
Y2: R 4.79, P 1.62, H 3.59, S 2.26, I 3.14, V 3.11, N 2.69, D 1.07, W 3.02, K 2.42, T 2.08, C 1.42, E 3.3, F 2.5
L24: C 3.89, A 2.13, K 3.43, I 2.35, F 3.39, P 4.07, W 2.79, E 1.75, Q 3.56, D 4.2, S 1.49
L14: E 1.9, P 2.32, I 2.96, M 2.22, A 2.33, K 2.9, D 3.85, N 2.84, H 2.93, T 1.65, G 2.24

Variants of: B3
Assay: as above
Settings: c terminus: a fixed tail appended

Protein stability index, by site and new letter:
T23: S 2.09, W 2.13, Y 2.78, V 2.36
R24: E 2.78, M 2.68, V 2.51, Q 2.31, K 3.32, S 2.3, P 2.75, Y 2.1, G 2.44, A 2.35, H 2.11, N 2.47, T 2.26, L 2.39, W 1.87, F 2.57, C 2.65, D 2.6, I 2.14
